Counter-ions that a name gives are not always drawn. Like-named read-outs stand apart in the source and are kept apart here.
Legend:
[1] = MTD previously determined using normal healthy mice; assay type: in vivo
Procedure: (§1) Male nude mice (Balb nu/nu, 5 weeks old) were purchased from Charles River Laboratories Japan, Inc., and human prostate cancer PC-3 cells were purchased from the Human Health Sciences Foundation Resources Bank. PC-3 cells that had been subcultured in a CO2 incubator were suspended in physiological saline for injection (Otsuka Pharmaceutical Co., Ltd.), and were subcutaneously injected into the back of the nude mice to a cell count of 2×10^6/50 μl per animal. Then, after keeping the nude mice for about 2 weeks, the administration of the drug was started when the mean of tumor volume reached about 50 mm^3.

[2] = tested on: Human prostate cancer PC-3 cells; test: drug efficacy study: tumor volume in PC-3-xenografted nude mice; assay type: in vivo, male nude mice (Balb nu/nu); conditions: tail vein, every 4 days for a total of 3 times
Source text: Human prostate cancer PC-3 cells subcutaneous transplanted to male nude mice were used as the model for evaluating drug efficacy.

[3] = in vivo; conditions: rat, 1 mg/kg
Procedure: Two compounds, i.e., the conjugate (13 DOX) obtained in Example 5a and MeO-PEG-pAsp (Hyd-DOX, Bn) (8 DOX) (Example 5b) prepared in method pursuant to Example 5a and having a different amount bound of DOX were used. An amount between 10-20 mg of each polymer was weighed accurately into a sample vial, to which 1 ml of dichloromethane was added to completely dissolve the polymer. Then, under the stream of nitrogen, the solvent was evaporated to prepare the polymer in the film form. Under reduced pressure, it was further dried at room temperature for 1 hour, and then 20 mM sodium phosphate buffer (pH 7.4)/5%(w/v) glucose was added to a polymer concentration of 10 mg/ml to hydrate the polymer film at 4° C. After stirring overnight at 4° C., it was subjected to ultrasonic treatment in ice chilled water for 10 minutes using the Biodisruptor (Nihonseiki Kaisha Ltd., High Power Unit). Subsequently, it was filtered with a 0.22 μm filter (Millipore, Millex™ GP PES) to prepare a micelle of the filtrate, which was used in the subsequent experiment.
To male Wistar rats (Charles River Laboratories Japan, Inc., 6-7 weeks old) under ether anesthesia, the above two micelles were administered into the tail vein under the following condition (n=3). Heparin-coated syringes were used to collect blood, and after centrifuging the blood drawn at 4° C., plasma was collected and stored at −30° C. until use.
Dose: 1 mg/kg in terms of the amount of DOX
Blood drawing timing: 5 minutes, 1, 3, 6, 9, 24, 48 hours after administration
Amount of blood drawn: 0.2-0.25 ml each time (from the jugular vein)
To 50 μl of rat plasma collected, 100 μl of acetonitrile and 50 μl of 0.4 N HCl were added in this order to make a total of 200 μl. After stirring, it was allowed to stand at room temperature for 1 hour. Subsequently, it was centrifuged (Funakoshi, Chibitan, 10,000 rpm, 10 minutes) at room temperature to collect 100 μl of the supernatant, to which 30 μl of 0.2 N NaOH, 20 μl of 1% Triton X-100, and 50 μl of 2 μg/ml of daunorubicin hydrochloride (Wako) (internal standard)/20 mM ammonium formate buffer (pH 3.0) was added in this order to make a total of 200 μl. The treatment sample liquid was filled into a HPLC sample vial, and subjected to HPLC analysis to determine the DOX concentration in the plasma.
To 50 μl of rat plasma collected, 100 μl of acetonitrile was added, centrifuged (Funakoshi, Chibitan, 10,000 rpm, 10 minutes) at room temperature to collect 50 μl of the supernatant, to which 100 μl of 2 μg/ml of daunorubicin hydrochloride (Wako) (internal standard)/20 mM sodium phosphate buffer (pH 7.4) was added. The treatment sample liquid was filled into a HPLC sample vial, and subjected to HPLC analysis to determine the DOX concentration in the plasma.
Using the values of the above (a) and (b), the concentration of polymer-conjugated DOX was calculated based on the following equation: (Polymer-conjugated DOX concentration)=(total DOX concentration)−(free DOX concentration) 4) Result of Determination of Concentration Change with Time in the Plasma
An amount between 10-20 mg each of 4 different polymers (8, 15, 20, and 39 DOX) was weighed accurately into a sample vial, to which 1 ml of dichloromethane was added to completely dissolve the polymer. Then, under the stream of nitrogen, the solvent was evaporated to prepare the polymer in the film form. Under reduced pressure, it was further dried at room temperature for 1 hour, and then 20 mM sodium phosphate buffer (pH 7.4)/5%(w/v) glucose was added to a polymer concentration of 10 mg/ml to hydrate the polymer film at 4° C. After stirring overnight at 4° C., it was subjected to ultrasonic treatment in ice chilled water for 10 minutes using the Biodisruptor (Nihonseiki Kaisha Ltd., High Power Unit). Subsequently, it was filtered with a 0.22 μm filter (Millipore, Millex™ GP PES) to prepare polymeric micelles of the filtrate, which were used in the subsequent experiment.

[4] = side effects: changes in body weight of PC-3-xenografted nude mice; conditions: tail vein, every 4 days for a total of 3 times
Procedure: as §1

[5] = study on pH-dependency of drug release from polymeric micelles; assay type: physicochemical; conditions: 37° C.
Procedure: To 950 μl of 20 mM ammonium formate buffer (pH 3), sodium acetate buffer (pH 5), or sodium phosphate buffer (pH 7.4) previously heated to 37° C., 50 μl of the polymeric micelles prepared in the above method were added to initiate a drug release experiment. At predetermined timing, 50 μl of the sample was collected, and instead the liquid amount was replenished with the same buffer, The free DOX concentration in the collected sample was determined by HPLC according to the above-mentioned method.

Compound | AUC ([3]; iv) [ng·h/mL] | retention in the plasma (in words) ([3]; iv) | further results
COc1cccc2c1C(=O)c1c(O)c3c(c(O)c1C2=O)C[C@@](O)(C(=O)CO)C[C@@H]3O[C@H]1C[C@H](N)[C@H](O)[C@H](C)O1 [DOX solution (Comp. Ex. 12), doxorubicin hydrochloride] | – | – | MTD ([1]; mouse, in vivo, read-out: MTD): 5 mg/kg; T/C at the maximum (tumor volume of drug group to control group) ([2]; 5 mg/kg (MTD)): 0.4
COc1cccc2c1C(=O)c1c(O)c3c(c(O)c1C2=O)C[C@@](O)(C(=O)CO)C[C@@H]3O[C@H]1C[C@H](N)[C@@H](O)[C@H](C)O1 [epirubicin hydrochloride] | – | – | AUC ([3]; male, Wistar): 40 ng·h/mL
MeO-PEG-pAsp (Hyd-DOX) [8DOX (Comp. Ex. 5)] | 19100 | relatively persistent retention in the plasma | –
MeO-PEG-pAsp (Hyd-DOX) [15DOX (Comp. Ex. 6)] | 7600 | relatively persistent retention in the plasma | –
MeO-PEG-pAsp (Hyd-DOX) [20DOX (Comp. Ex. 6)] | 3100 | rapidly disappear | –
MeO-PEG-pAsp (Hyd-DOX) [39DOX (Comp. Ex. 6)] | 1200 | rapidly disappear | –
MeO-PEG-pAsp (Hyd-DOX) [Comparative Example 6] | – | – | MTD [1]: 15 mg/kg; T/C at the maximum (tumor volume of drug group to control group) ([2]; 15 mg/kg (MTD)): 0.42; decrease in body weight (maximum) ([4]; 15 mg/kg (MTD)): 13%
MeO-PEG-pAsp (Hyd-DOX, Bn) [8DOX (Example 5b)] | 149000 | persistent plasma concentration | concentration of free DOX relative to the total DOX concentration in plasma ([3]; iv): about 1/100
MeO-PEG-pAsp (Hyd-DOX, Bn) [13DOX (Example 5a)] | 238000 | – | T/C at the maximum (tumor volume of drug group to control group) ([2]; 11 mg/kg (MTD×⅔)): 0.32; decrease in body weight (maximum) ([4]; 11 mg/kg (MTD×⅔)): 15%; release of DOX from the micelles ([5]; pH 3, 20 mM ammonium formate buffer): rapidly released; release of DOX from the micelles ([5]; pH 5 to 7.4 (sodium acetate / sodium phosphate buffer)): the release rate decreased
MeO-PEG-pAsp (Hyd-DOX, C4-Phenyl) [6DOX (Example 7)] | 156000 | – | –
MeO-PEG-pAsp (Hyd-DOX, C8) [12DOX (Example 3)] | 90700 | – | –
MeO-PEG-pAsp (Hyd-DOX, NH4) [12DOX (Comp. Ex. 7)] | 69500 | – | AUC relative to that of Example 5 ([3]; iv): about ¼; increase in AUC compared to the DOX solution ([3]; iv): about 500 fold
MeO-PEG-pAsp (amide-DOX) [13DOX (Amide) (Comp. Ex. 9)] | 57900 | – | AUC relative to that of Example 5 ([3]; iv): about ¼; increase in AUC compared to the DOX solution ([3]; iv): about 500 fold

— patent publication US8519051B2, “Block copolymer for drug conjugates and pharmaceutical composition” (priority 2006, dated 2013)
